Experimental data: US20240270846A1

B1: GPC3/CtrlxCD3 trispecific antibody (protein, from a related filing, part only)
VH 1: QVQLVESGGGLVQPGRSLRLSCAASGFTFSNAWMHWVRQAPGKGLEWVAQIKDRANSYNTYYAESVKGRFTISRDDSKNSIYLQMNSLKTEDTAVYYCRYVHYTTYAGSSFSYGVDAWGQGTTVTVSS
VL 1: DIVMTQSPLSLPVTPGEPASISCRSSQPLVHSNRNTYLHWYQQKPGQAPRLLIYKVSNRFSGVPDRFSGSGSGTDFTLKISRVEAEDVGVYYCGQGTQVPYTFGQGTKLEIK
VH 2: QVQLVQSGAEVKKPGASVTVSCKASGYTFTDYEMHWIRQPPGEGLEWIGAIDGPTPDTAYSEKFKGRVTLTADKSTSTAYMELSSLTSEDTAVYYCTRFYSYTYWGQGTLVTVSS
VL 2: DIVMTQSPLSLPVTPGEPASISCRSSQPLVHSNRNTYLHWYQQKPGQAPRLLIYKVSNRFSGVPDRFSGSGSGTDFTLKISRVEAEDVGVYYCGQGTQVPYTFGQGTKLEIK
modifications: left off: another chain or arm of the molecule; a dimerising Fc or GST
B2: Ctrl/CtrlxCD3 trispecific antibody (protein, part only; not given: Control arm variable domains, constant regions, part only)
VH: QVQLVESGGGLVQPGRSLRLSCAASGFTFSNAWMHWVRQAPGKGLEWVAQIKDRANSYNTYYAESVKGRFTISRDDSKNSIYLQMNSLKTEDTAVYYCRYVHYTTYAGSSFSYGVDAWGQGTTVTVSS
VL: DIVMTQSPLSLPVTPGEPASISCRSSQPLVHSNRNTYLHWYQQKPGQAPRLLIYKVSNRFSGVPDRFSGSGSGTDFTLKISRVEAEDVGVYYCGQGTQVPYTFGQGTKLEIK

Biological target: recombinant human CD3 (human) (UniProt P07766)
Experiment: SPR (Biacore T200, 37 degrees C), antibody captured by anti-human Fc, antigen as analyte, 1:1 model

Chain of recombinant human CD3 (human) (P07766 23-126): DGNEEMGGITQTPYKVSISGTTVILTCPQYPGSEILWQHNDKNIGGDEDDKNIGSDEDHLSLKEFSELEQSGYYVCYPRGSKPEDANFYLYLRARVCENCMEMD

| Binder | Kd [nM] | koff [s⁻¹] | kon [M⁻¹ s⁻¹] |
| --- | --- | --- | --- |
| B1 | 17.8 | 0.00151 | 85000 |
| B2 | 17.5 | 0.00147 | 83700 |
